Test results from patent US20200270588A1, “GLUCOSYL TRANSFERASE POLYPEPTIDES AND METHODS OF USE” (Syngenta Participations AG, priority 2017, published 2020).

Assay: UDP luminescence plate assay of E. coli extracts, mutants within SEQ ID No: 17, 2 mM metribuzin
Format: biochemical, Zea mays
Details: for metribuzin signal relative to the SEQ ID No:17 control (first parentheses) / ratio of metribuzin to DMSO signal (second parentheses) / SIGNAL: metribuzin signal of mutant divided by the signal of the SEQ ID No. 17 control / luminescence signal observed with 2 mM metribuzin: 2 mM metribuzin; for metribuzin signal relative to the SEQ ID No:17 control (first parentheses) / ratio of metribuzin to DMSO signal (second parentheses): additional mutation in SEQ ID No: 17; for SIGNAL: metribuzin signal of mutant divided by the signal of the SEQ ID No. 17 control: relative to SEQ ID No: 17 control; for luminescence signal in the DMSO control / luminescence signal observed with 2 mM metribuzin: additional mutations within SEQ ID No: 17; for luminescence signal in the DMSO control: DMSO in place of metribuzin; for luminescence signal observed with 2 mM metribuzin: control = SEQ ID No: 17
Method: Activities observed with metribuzin were generally lower in magnitude than seen with herbicide V in the previous examples. For example, in one plate assay run with 2 mM metribuzin using 5 ul of diluted extract of plate-grown BL21DE3 cells expressing w/t bx9 and assayed for 40 minutes (as described in Example 2) the UDP-Glo luminescence signal was ˜3.4 E6 as compared with ˜2.3E6 in the DMSO control and ˜1.7E6 in the H24A null mutant control. […] It was therefore important to assess potential improvements in the metribuzin activity of the various mutants relative to the wild type bx9 enzyme based not only on the H24A null activity control but also based upon controls with DMSO in place of metribuzin acceptor substrate. In some plate assays (using more dilute extracts) the metribuzin signals from the w/t enzyme was the same or barely greater than the DMSO control. Additionally, some mutations gave an increase in the ‘background’ UDP-glucose hydrolysis activity with just DMSO present that was the same or similar to the magnitude of the increase in signal seen with metribuzin. In these instances it is therefore uncertain from just this UDP-Glo assay method whether the specific metribuzin signal (glucosylation of metribuzin) is improved or not i.e. the signal seen with metribuzin may or may not all or to a large part be attributable to increased background hydrolysis). […] Thus the ratio of the metribuzin to DMSO signal as well as the increase in signal relative to the w/t bx9 is used to help distinguish those mutations most likely to offer the highest activity to metribuzin. A follow up assay monitored by, for example, LC MS is one method to distinguish these cases more quantitatively. The tables below summarise the results from two different sets of luminescence plate assays to detect single mutations giving improvements in the magnitude of the signal with metribuzin relative to w/t bx9 and/or the apparent specificity for metribuzin as measured by the deviation of the ratio of metribuzin to DMSO control activity from the bx9 w/t value of around unity.
A further separate screen was carried out to explore a library of additional mutations at various positions within the context of SEQ ID No: 17 for improved metribuzin activity. These were assayed, assessed and scored as above. […] These were S75K (2.5)(1.25), A236G (4.0)(1.15), A433V (3.3)(9.0) and R449C (1.8)(1.2).
A yet further and more comprehensive screen was carried out to explore saturation mutagenesis at all remaining amino acid positions within the context of SEQ ID No:17 for improved metribuzin activity. Again these were assayed, assessed and scored as above and the results of (out of the thousands screened) of the subset that were of interest are summarized in Table 16.

Molecule | metribuzin signal relative to the SEQ ID No:17 control (first parentheses) | ratio of metribuzin to DMSO signal (second parentheses) | SIGNAL: metribuzin signal of mutant divided by the signal of the SEQ ID No. 17 control | luminescence signal in the DMSO control | luminescence signal observed with 2 mM metribuzin
H375Y: additional mutation in SEQ ID No: 17 (protein, Mutated Zea mays Bx9 protein sequence) MASSRTGAGAGGRVVVFPFPFQGHFNPVMRLARALHARGLAITVFHSGALDPADYPADYRFVPVTVEADPKLLASEDIAAIVTTLNASCDAPFRARLSALLAAEGRDSVRCVFTDVVWNAVLTASSDLGVPALGMMTASAASLRDYMAYRTLIDKGYLPVKEERKEDPVPELPPYLVKDLLRVDTSDLEEFAELLARTVTAARRASGLIFNTFPLIETDTLAEIHKALSVPVFAVAPLNKLVPTATASLHGVVQADRGCLQWLDTQQPGSVLYVSFGSFAAMDPHEFVELAWGLADSKRPFVWVVRPNLIRGFESGALPDGVEDEVRGRGIVVKWAPQEEVLAHPAVGGFLTHNGWNSTVEAISEGVPMVCCPRYGDQFGNMRYVCDVWKVGTELVGEQLERGQVKAAIDRLFGTKEGEEIKERMKEFKIAAAKGIGIGVDVDETASPRTDLTDLVDLIKSF | 3.8 | 2.33 | 3.80 | 2.97E+06 | 6.93E+06
I430P: additional mutation in SEQ ID No: 17 (protein, Mutated Zea mays Bx9 protein sequence) MASSRTGAGAGGRVVVFPFPFQGHFNPVMRLARALHARGLAITVFHSGALDPADYPADYRFVPVTVEADPKLLASEDIAAIVTTLNASCDAPFRARLSALLAAEGRDSVRCVFTDVVWNAVLTASSDLGVPALGMMTASAASLRDYMAYRTLIDKGYLPVKEERKEDPVPELPPYLVKDLLRVDTSDLEEFAELLARTVTAARRASGLIFNTFPLIETDTLAEIHKALSVPVFAVAPLNKLVPTATASLHGVVQADRGCLQWLDTQQPGSVLYVSFGSFAAMDPHEFVELAWGLADSKRPFVWVVRPNLIRGFESGALPDGVEDEVRGRGIVVKWAPQEEVLAHPAVGGFLTHNGWNSTVEAISEGVPMVCCPRHGDQFGNMRYVCDVWKVGTELVGEQLERGQVKAAIDRLFGTKEGEEIKERMKEFKPAAAKGIGIGVDVDETASPRTDLTDLVDLIKSF | 2.8 | 1.34 | 2.82 | 3.83E+06 | 5.15E+06
K429S: additional mutation in SEQ ID No: 17 (protein, Mutated Zea mays Bx9 protein sequence) MASSRTGAGAGGRVVVFPFPFQGHFNPVMRLARALHARGLAITVFHSGALDPADYPADYRFVPVTVEADPKLLASEDIAAIVTTLNASCDAPFRARLSALLAAEGRDSVRCVFTDVVWNAVLTASSDLGVPALGMMTASAASLRDYMAYRTLIDKGYLPVKEERKEDPVPELPPYLVKDLLRVDTSDLEEFAELLARTVTAARRASGLIFNTFPLIETDTLAEIHKALSVPVFAVAPLNKLVPTATASLHGVVQADRGCLQWLDTQQPGSVLYVSFGSFAAMDPHEFVELAWGLADSKRPFVWVVRPNLIRGFESGALPDGVEDEVRGRGIVVKWAPQEEVLAHPAVGGFLTHNGWNSTVEAISEGVPMVCCPRHGDQFGNMRYVCDVWKVGTELVGEQLERGQVKAAIDRLFGTKEGEEIKERMKEFSIAAAKGIGIGVDVDETASPRTDLTDLVDLIKSF | 2.4 | 1.30 | 2.38 | 3.34E+06 | 4.34E+06
G418Y: additional mutation in SEQ ID No: 17 (protein, Mutated Zea mays Bx9 protein sequence) MASSRTGAGAGGRVVVFPFPFQGHFNPVMRLARALHARGLAITVFHSGALDPADYPADYRFVPVTVEADPKLLASEDIAAIVTTLNASCDAPFRARLSALLAAEGRDSVRCVFTDVVWNAVLTASSDLGVPALGMMTASAASLRDYMAYRTLIDKGYLPVKEERKEDPVPELPPYLVKDLLRVDTSDLEEFAELLARTVTAARRASGLIFNTFPLIETDTLAEIHKALSVPVFAVAPLNKLVPTATASLHGVVQADRGCLQWLDTQQPGSVLYVSFGSFAAMDPHEFVELAWGLADSKRPFVWVVRPNLIRGFESGALPDGVEDEVRGRGIVVKWAPQEEVLAHPAVGGFLTHNGWNSTVEAISEGVPMVCCPRHGDQFGNMRYVCDVWKVGTELVGEQLERGQVKAAIDRLFGTKEYEEIKERMKEFKIAAAKGIGIGVDVDETASPRTDLTDLVDLIKSF | 3.1 | 1.47 | 3.11 | 3.86E+06 | 5.67E+06
R424P: additional mutation in SEQ ID No: 17 (protein, Mutated Zea mays Bx9 protein sequence) MASSRTGAGAGGRVVVFPFPFQGHFNPVMRLARALHARGLAITVFHSGALDPADYPADYRFVPVTVEADPKLLASEDIAAIVTTLNASCDAPFRARLSALLAAEGRDSVRCVFTDVVWNAVLTASSDLGVPALGMMTASAASLRDYMAYRTLIDKGYLPVKEERKEDPVPELPPYLVKDLLRVDTSDLEEFAELLARTVTAARRASGLIFNTFPLIETDTLAEIHKALSVPVFAVAPLNKLVPTATASLHGVVQADRGCLQWLDTQQPGSVLYVSFGSFAAMDPHEFVELAWGLADSKRPFVWVVRPNLIRGFESGALPDGVEDEVRGRGIVVKWAPQEEVLAHPAVGGFLTHNGWNSTVEAISEGVPMVCCPRHGDQFGNMRYVCDVWKVGTELVGEQLERGQVKAAIDRLFGTKEGEEIKEPMKEFKIAAAKGIGIGVDVDETASPRTDLTDLVDLIKSF | 2.5 | 1.14 | 2.51 | 4.02E+06 | 4.58E+06
A431P: additional mutation in SEQ ID No: 17 (protein, Mutated Zea mays Bx9 protein sequence) MASSRTGAGAGGRVVVFPFPFQGHFNPVMRLARALHARGLAITVFHSGALDPADYPADYRFVPVTVEADPKLLASEDIAAIVTTLNASCDAPFRARLSALLAAEGRDSVRCVFTDVVWNAVLTASSDLGVPALGMMTASAASLRDYMAYRTLIDKGYLPVKEERKEDPVPELPPYLVKDLLRVDTSDLEEFAELLARTVTAARRASGLIFNTFPLIETDTLAEIHKALSVPVFAVAPLNKLVPTATASLHGVVQADRGCLQWLDTQQPGSVLYVSFGSFAAMDPHEFVELAWGLADSKRPFVWVVRPNLIRGFESGALPDGVEDEVRGRGIVVKWAPQEEVLAHPAVGGFLTHNGWNSTVEAISEGVPMVCCPRHGDQFGNMRYVCDVWKVGTELVGEQLERGQVKAAIDRLFGTKEGEEIKERMKEFKIPAAKGIGIGVDVDETASPRTDLTDLVDLIKSF | 2.8 | 1.32 | 2.81 | 3.87E+06 | 5.12E+06
M425F: additional mutation in SEQ ID No: 17 (protein, Mutated Zea mays Bx9 protein sequence) MASSRTGAGAGGRVVVFPFPFQGHFNPVMRLARALHARGLAITVFHSGALDPADYPADYRFVPVTVEADPKLLASEDIAAIVTTLNASCDAPFRARLSALLAAEGRDSVRCVFTDVVWNAVLTASSDLGVPALGMMTASAASLRDYMAYRTLIDKGYLPVKEERKEDPVPELPPYLVKDLLRVDTSDLEEFAELLARTVTAARRASGLIFNTFPLIETDTLAEIHKALSVPVFAVAPLNKLVPTATASLHGVVQADRGCLQWLDTQQPGSVLYVSFGSFAAMDPHEFVELAWGLADSKRPFVWVVRPNLIRGFESGALPDGVEDEVRGRGIVVKWAPQEEVLAHPAVGGFLTHNGWNSTVEAISEGVPMVCCPRHGDQFGNMRYVCDVWKVGTELVGEQLERGQVKAAIDRLFGTKEGEEIKERFKEFKIAAAKGIGIGVDVDETASPRTDLTDLVDLIKSF | 4.1 | 1.96 | 4.13 | 3.84E+06 | 7.53E+06
